Measured values: US20150140120, “STABILIZED APTAMERS TO PLATELET DERIVED GROWTH FACTOR AND THEIR USE AS ONCOLOGY THERAPEUTICS” (ARCHEMIX LLC, published 2015)
Substitutions are numbered along the chain they refer to.

What was measured:
[1] = target: T1, PDGF-AA (rat, UniProt P28576 P28576:86-204); test: filter; 1x SHMCK, 0.1 mg/mL tRNA, RT; conditions: chain copies: 2 inferred; label: 5'-32P
Description: (§1) Dot blot binding assays were performed throughout the selection to monitor the protein binding affinity of the pool. Trace ³²P-labeled RNA was combined with PDGF-AA and incubated at room temperature for 30 min in 1× SHMCK plus 0.1 mg/ml tRNA for a final volume of 20 μl. The reaction was added to a dot blot apparatus (Schleicher and Schuell Minifold-1 Dot Blot, Acrylic), assembled (from top to bottom) with nitrocellulose, nylon, and gel blot membranes. RNA that is bound to protein is captured on the nitrocellulose filter, whereas the non-protein bound RNA is captured on the nylon filter.

[2] = target: T2, PDGF-AA short form (human, UniProt P04085-2 P04085-2:87-196); test: filter; 1x SHMCK (Mg, Ca), 0.1 mg/mL tRNA, RT; 2-3 fold lower without tRNA; conditions: tags: Roche Biomedical (short form); chain copies: 2 inferred; label: 5'-32P
Description: as §1

[3] = target: T2, PDGF-AA short form; test: filter; 1x SHMCK, 0.1 mg/mL tRNA, RT; conditions: tags: Roche Biomedical (short form); chain copies: 2 inferred; label: 5'-32P
Description: as §1

[4] = target: T3, PDGF-BB (human, UniProt P01127 P01127:82-190); test: filter; dot blot; conditions: tags: PeproTech (ERK assay: R&D Systems); chain copies: 2 inferred
T3 sequence (P01127 82-190, one chain of several): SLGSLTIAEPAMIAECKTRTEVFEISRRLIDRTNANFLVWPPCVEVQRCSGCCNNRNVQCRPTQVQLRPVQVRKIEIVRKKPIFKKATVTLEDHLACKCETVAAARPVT
Excerpt: (§2) Protein-associated radio-label is captured on the nitrocellulose membrane while the balance of the radio-label is captured on the nylon membrane. The radio-label data is collected on a phosphorimaging plate.

[5] = target: VEGF (UniProt P15692-4 P15692-4:27-191); test: filter; dot blot; conditions: chain copies: 2
Sequence of VEGF (P15692 other isoform, or with tags, fused parts or gaps): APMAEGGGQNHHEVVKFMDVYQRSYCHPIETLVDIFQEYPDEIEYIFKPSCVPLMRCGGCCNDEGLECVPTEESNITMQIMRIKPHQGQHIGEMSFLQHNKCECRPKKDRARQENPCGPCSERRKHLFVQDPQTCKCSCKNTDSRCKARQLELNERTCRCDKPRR
Excerpt: as §2

[6] = target: T1, PDGF-AA; test: filter; N.B., no significant binding; conditions: chain copies: 2 inferred; label: 5'-32P
Description: as §1

[7] = target: T2, PDGF-AA short form; test: filter; N.B., no significant binding; conditions: tags: Roche Biomedical (short form); chain copies: 2 inferred; label: 5'-32P
Description: as §1

[8] = target: T3, PDGF-BB; test: filter; all-DNA ARC126 used in the chimera; dot blot; conditions: tags: PeproTech (ERK assay: R&D Systems); chain copies: 2 inferred
Excerpt: as §2

[9] = target: T3, PDGF-BB; test: filter; recognises VEGF but not PDGF; conditions: tags: PeproTech (ERK assay: R&D Systems); chain copies: 2 inferred

B1: ARX33P1.D2 (ssRNA)
RNA: GGGAAAAGCGAAUCAUACACAAGACCGGGAACUCGGAUUCUUCGCAUGUGGAUGCGAUCAGUAUGCUCCGCCAGAGACCAACCGAGAA
modifications: 2'-F pyrimidines, 2'-OH purines
[1]
  Kd: 51.7 nM
[2]
  Kd: 104 nM

B2: ARX33P1.E10 (ssRNA)
RNA: B1 RNA with G29A
modifications: 2'-F pyrimidines, 2'-OH purines
[1]
  Kd: 47.1 nM
[3]
  Kd: 133 nM

B3: ARX33P1.E5 (ssRNA)
RNA: B1 RNA with G44A, C55U
modifications: 2'-F pyrimidines, 2'-OH purines
[1]
  Kd: 57.4 nM
[3]
  Kd: 117 nM

B4: TK.131.012.A (mixed)
mixed: CAGGCTACGAUGCAGUUUGAGAAGUCGCGCAUCGTAGAGCATCAGAAATGATCCTG
modifications: DNA (PDGF part) with 2'-OMe VEGF part (ARC245); 3' inverted dT
[4]
  Kd: ~10 nM
[5]
  Kd: ~10 nM

B5: ARX33P1.D1 (ssRNA)
RNA: GGGAAAAGCGAAUCAUACACAAGAUCGCCAGGAGCAAAGUCACGGAGGAGUGGGGGUACGAAUGCUCCGCCAGAGACCAACCGAGAA
modifications: 2'-F pyrimidines, 2'-OH purines
[6]
  binding result: no binding
[7]
  binding result: no binding

## CAGGCTACGCGTAGAGCATCATGATCCTG (ssDNA, 3' inverted dT (SEQ ID NO: 8)) [deoxyARC126]
[8]
  Kd: ~0.1 nM

B6: ARX33P1.E11 (ssRNA)
RNA: GGGAAAAGCGAAUCAUACACAAGAGAGUGGAGGAGGUAUGUAUGGUUUGUGCGUCUGGUGCGGUGCUCCGCCAGAGACCAACCGAGAA
modifications: 2'-F pyrimidines, 2'-OH purines
[6]
  binding result: no binding
[7]
  binding result: no binding

## AUGCAGUUUGAGAAGUCGCGCAU (XNA, all 2'-OMe; 3' inverted dT) [ARC245]
[5]
  Kd: ~2 nM
[9]
  binding result: no binding

B7: TK.131.012.B (mixed)
mixed: CAGGCTACGUGCAGUUUGAGAAGUCGCGCACGTAGAGCATCAGAAATGATCCTG
modifications: DNA (PDGF part) with 2'-OMe VEGF part (ARC245 lacking first mA-mU pair); 3' inverted dT
[4]
  Kd: ~10 nM
[5]
  Kd: ~5 nM
